# Data taken from patent publication US20250129148A1 (ONCOONE RESEARCH AND DEVELOPMENT, published 2025).
# Biological target: T1, oxMIF (recombinant human MIF immobilized into ELISA plates, transforming MIF to oxMIF) (human, UniProt P14174 2-115)
# T1 construct: Oxidised conformational isoform produced by coating the plate at 1 ug/ml in PBS overnight; also called immobilized MIF (oxMIF); immobilized oxMIF
# Assay: ELISA on immobilized MIF (oxMIF), 4-parameter fit
# Procedure: (§1) Recombinant human MIF diluted in PBS at 1 μg/ml was immobilized into ELISA plates overnight at 4° C. (transforming MIF to oxMIF according to Thiele et al., 2015). After blocking, serial dilutions of anti-oxMIF antibodies were added to the plates. Finally, bound antibodies were detected using a Goat anti-human IgG (Fc)-HRP conjugate and tetramethylbenzidine (TMB) as substrate. The chromogenic reaction was stopped with 3M H₂SO₄ and OD was measured at 450 nm. Data from different experiments were normalized to the maximal OD of the anti-oxMIF antibody C0008 (=100%) of the respective experiment and EC₅₀ values were determined by 4-parameter fit using GraphPad Prism (and the mean+/−SEM of two experiments is shown).
# Materials and Methods: Recombinant human MIF diluted in PBS at 1 μg/ml was immobilized into ELISA plates overnight at 4° C. (transforming MIF to oxMIF according to Thiele et al., 2015). After blocking, serial dilutions of antibodies were added to the plates, and ELISA was performed as described in the Example 3.
# T1 sequence (P14174 2-115 limits assumed): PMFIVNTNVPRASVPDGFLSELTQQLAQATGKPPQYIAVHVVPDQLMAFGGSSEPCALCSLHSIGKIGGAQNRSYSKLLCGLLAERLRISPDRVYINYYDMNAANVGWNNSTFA
row,EC50,Binder
1,0.158 nM,"C0008 (control/reference anti-oxMIF antibody) (antibody, human IgG1, kappa, V domains shown, Human IgG1 with wt Fc; also called control antibody) VH: EVQLLESGGGLVQPGGSLRLSCAASGFTFSIYSMNWVRQAPGKGLEWVSSIGSSGGTTYYADSVKGRFTISRDNSKNTLYLQMNSLRAEDTAVYYCAGSQWLYGMDVWGQGTTVTVSS VL: DIQMTQSPSSLSASVGDRVTITCRSSQRIMTYLNWYQQKPGKAPKLLIFVASHSQSGVPSRFRGSGSETDFTLTISGLQPEDSATYYCQQSFWTPLTFGGGTKVEIKR"
2,2.51 nM,"C0132 (Fc silenced anti-oxMIF x anti-HSG bispecific antibody, Fab/scFv-Fc) (bispecific antibody, human IgG1, kappa, L234A L235A, One anti-oxMIF arm only; also called bsMab C0132) heavy: not shown EVQLVESGGDLVKPGGSLKLSCAASGFTFSIYTMSWLRQTPGKGLEWVATLSGDGDDIYYPDSVKGRFTISRDNAKNSLYLQMNSLRAEDTALYYCARVRLGDWDFDVWGQGTTVSVSSGGSGGSGGSGGSGGSDIVMTQSPSSLAVSPGERVTLTCKSSQSLFNSRTRKNYLGWYQQKPGQSPKLLIYWASTRESGVPDRFSGSGSGTDFTLTINSLQAEDVAVYYCTQVYYLCTFGAGTKLELKGGGGSDKTHTCPPCPAPEAAGGPSVFLFPPKPKDTLMISRTPEVTCVVVDVSHEDPEVKFNWYVDGVEVHNAKTKPREEQYNSTYRVVSVLTVLHQDWLNGKEYKCKVSNKALPAPIEKTISKAKGQPREPQVCTLPPSRDELTKNQVSLSCAVKGFYPSDIAVEWESNGQPENNYKTTPPVLDSDGSFFLVSKLTVDKSRWQQGNVFSCSVMHEALHNHYTQKSLSLSPG light: DIQMTQSPSSLSASVGDRVTITCRSSQRIMTYLNWYQQKPGKAPKLLIYVGSHSQSGVPSRFRGSGSETDFTLTISGLQPEDSATYYCQQSFFTPLTFGGGTKVEIKRTVAAPSVFIFPPSDEQLKSGTASVVCLLNNFYPREAKVQWKVDNALQSGNSQESVTEQDSKDSTYSLSSTLTLSKADYEKHKVYACEVTHQGLSSPVTKSFNRGEC"
3,0.242 nM,"C0133 (Fc silenced anti-oxMIF x anti-HSG bispecific antibody, Fab/Fab-scFv-Fc) (bispecific antibody, human IgG1, kappa, L234A L235A, also called bsMab C0133) heavy: not shown EVQLQESGGGLVQPGGSLRLSCAASGFTFSIYSMNWVRQAPGKGLEWVSSIGSSGGTTYYADSVKGRFTISRDNSKNTLYLQMNSLRAEDTAVYYCAGSQYLYGMDVWGQGTTVTVSSASTKGPSVFPLAPSSKSTSGGTAALGCLVKDYFPEPVTVSWNSGALTSGVHTFPAVLQSSGLYSLSSVVTVPSSSLGTQTYICNVNHKPSNTKVDKKVEPKSCGGGGSGGGGSEVQLVESGGDLVKPGGSLKLSCAASGFTFSIYTMSWLRQTPGKGLEWVATLSGDGDDIYYPDSVKGRFTISRDNAKNSLYLQMNSLRAEDTALYYCARVRLGDWDFDVWGQGTTVSVSSGGSGGSGGSGGSGGSDIVMTQSPSSLAVSPGERVTLTCKSSQSLFNSRTRKNYLGWYQQKPGQSPKLLIYWASTRESGVPDRFSGSGSGTDFTLTINSLQAEDVAVYYCTQVYYLCTFGAGTKLELKGGGGSGGGGSKTHTCPPCPAPEAAGGPSVFLFPPKPKDTLMISRTPEVTCVVVDVSHEDPEVKFNWYVDGVEVHNAKTKPREEQYNSTYRVVSVLTVLHQDWLNGKEYKCKVSNKALPAPIEKTISKAKGQPREPQVCTLPPSRDELTKNQVSLSCAVKGFYPSDIAVEWESNGQPENNYKTTPPVLDSDGSFFLVSKLTVDKSRWQQGNVFSCSVMHEALHNHYTQKSLSLSPG light: DIQMTQSPSSLSASVGDRVTITCRSSQRIMTYLNWYQQKPGKAPKLLIYVGSHSQSGVPSRFRGSGSETDFTLTISGLQPEDSATYYCQQSFFTPLTFGGGTKVEIKRTVAAPSVFIFPPSDEQLKSGTASVVCLLNNFYPREAKVQWKVDNALQSGNSQESVTEQDSKDSTYSLSSTLTLSKADYEKHKVYACEVTHQGLSSPVTKSFNRGEC"

# Biological target: T1, oxMIF (recombinant human MIF …)
# Assay: ELISA on immobilized MIF (oxMIF); EC50 of 4-parameter fit given as apparent KD
# Procedure: as §1
# Anti-oxMIF antibodies were detected by an anti-human-IgG (Fc)-HRP conjugate, C0008 was used as reference antibody. EC₅₀ values were determined by sigmoidal, 4-parameter equation using GraphPad Prism (mean+/−SEM of two experiments is shown)
row,Kd,Binder
1,0.19 nM,"C0008 (control/reference anti-oxMIF antibody) (antibody, human IgG1, kappa, V domains shown, Human IgG1 with wt Fc; also called control antibody) VH: EVQLLESGGGLVQPGGSLRLSCAASGFTFSIYSMNWVRQAPGKGLEWVSSIGSSGGTTYYADSVKGRFTISRDNSKNTLYLQMNSLRAEDTAVYYCAGSQWLYGMDVWGQGTTVTVSS VL: DIQMTQSPSSLSASVGDRVTITCRSSQRIMTYLNWYQQKPGKAPKLLIFVASHSQSGVPSRFRGSGSETDFTLTISGLQPEDSATYYCQQSFWTPLTFGGGTKVEIKR"
2,0.28 nM,"C0115 (Fc silenced anti-oxMIF antibody) (antibody, human IgG1, kappa, L234A L235A, V domains shown) VH: EVQLQESGGGLVQPGGSLRLSCAASGFTFSIYSMNWVRQAPGKGLEWVSSIGSSGGTTYYADSVKGRFTISRDNSKNTLYLQMNSLRAEDTAVYYCAGSQYLYGMDVWGQGTTVTVSS VL: DIQMTQSPSSLSASVGDRVTITCRSSQRIMTYLNWYQQKPGKAPKLLIYVGSHSQSGVPSRFRGSGSETDFTLTISGLQPEDSATYYCQQSFFTPLTFGGGTKVEIKR"
3,0.26 nM,"C0118 (Fc silenced anti-oxMIF antibody) (antibody, human IgG1, kappa, L234A L235A, V domains shown) VH: EVQLQESGGGLVQPGGSLRLSCAASGFTFSIYSMNWVRQAPGKGLEWVSSIGSSGGTTYYADSVKGRFTISRDNSKNTLYLQMNSLRAEDTAVYYCAGSQYLYGMDVWGQGTTVTVSS VL: DIQMTQSPSSLSASVGDRVTITCRSSQRILTYLNWYQQKPGKAPKLLIYVGSHSQSGVPSRFRGSGSETDFTLTISGLQSEDSATYYCQQSFFTPLTFGGGTKVEIKR"
